No end group written: not given here.
Key:
[1] = molecular target: T1, Cdc42^2-178 (C-terminally truncated Cdc42 lacking its geranylgeranylation motif) (UniProt Q05062 2-178); assay: FP; GDP-loaded Cdc42
[2] = molecular target: T1, Cdc42^2-178 (C-terminally truncated …); assay: FP; GMPPNP-loaded Cdc42

T1 sequence (Q05062 2-178): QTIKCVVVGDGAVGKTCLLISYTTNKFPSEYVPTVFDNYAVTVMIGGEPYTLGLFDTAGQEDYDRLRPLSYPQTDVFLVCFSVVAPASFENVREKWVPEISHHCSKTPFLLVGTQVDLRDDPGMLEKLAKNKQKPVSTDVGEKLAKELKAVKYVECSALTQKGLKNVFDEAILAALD

QISTPSDFMHIVHMGPAPVMELQQNFIDLQ (also: FITC label, position not given here) [FITC-labeled CRIB peptide of C. elegans MRCK1 (residues 1543-1572)] showed a Kd [1] of 1120 µM and a Kd [2] of 264 µM.

From article doi:10.1101/2022.03.11.483953 (2022)
